# Measured values reported in paper PMC4674064, “Newly Characterized Region of CP190 Associates with Microtubules and Mediates Proper Spindle Morphology in Drosophila Stem Cells” (PLoS ONE, 2015).
# B1: Drosophila melanogaster CP190 BTB domain (residues 1-135) (domain or fragment, UniProt Q24478 1-135, looked up)
# chain: MGEVKSVKVDNWGVFFLQKLQNFFNKTDYCDLTLQFRDNSQLKVHRLVLSACTDYFNVLEQTCEIVDDALIMPNEFQADVVVPIVNFMYTGTLEFELKMYGKLLRTAKEMNMTVLLKLLEAHRRTMENVNRQQRP
# notes: CP190 (centrosome associated protein at 190 kDa), Drosophila melanogaster, BTB domain, residues 1-135; the final crystal model holds residues 2-121; Native and selenomethionine-substituted protein were crystallised; also called BTB-WT; source: E. coli BL21 DE3 (pLysS), purified (Ni-NTA, thrombin digestion, Q-sepharose ion exchange); not shown: His6, N-terminal, cleaved
# Target: the molecule itself
# Assay: SEC-MALS; Superdex 200 10/300 GL, 25 mM Tris pH 7.4, 0.2 g/L NaN2, 0.5 mL/min
protein,measurement,value
B1,stoichiometry N,2
